Assay results as given in publication PMC4449276.

Molecular target: chaperonin-containing TCP-1 (CCT), bovine (bovine) (UniProt Q32L40)
Test: native gel or EMSA

| Substance | percent of the CCT binding of Hsc70 | percent of the wild-type CCT binding |
| --- | --- | --- |
| DnaK_(Hsc70-185–190) (DnaK with T185GNRTI190 exchanged by Hsc70 V189GAERNV195) (from UniProt P0A6Y8 1-638) (natural protein) | 64% | – |
| Hsc70ΔC_(DnaK189–192) (Hsc70ΔC with V189GAE192 changed to DnaK T185GN187) (from UniProt P19120 1-554) (domain or fragment) | – | 18% |
| Hsc70ΔC_(DnaK189–195) (Hsc70ΔC with V189GAERNV195 substituted with DnaK TGNRTI) (from UniProt P19120 1-554) (domain or fragment) | – | 6% |
